Reference: patent US20150351390A1, “COMPOSITIONS AND METHODS FOR AUXIN-ANALOG CONJUGATION” (PIONEER HI-BRED INTERNATIONAL, INC., priority 2012, published 2015)
Entries after “also recorded” stand apart in the source; their conditions may differ.

Legend:
soybean seedlings = test: Soybean seedling response to spot infiltrated auxins and conjugates; as to 1st trifoliate leaf curl: key: 0 = no phenotype; +/− = threshold; as to Chlorotic lesion @ app. Pnt: key: 0 = no phenotype; +/− = threshold; format: in vivo; parameters: 1st trifoliate leaf curl / Epinasty score: key: 0 = no phenotype; +/− = threshold; settings: for 1st trifoliate leaf curl / Chlorotic lesion @ app. Pnt / Epinasty score: spot infiltration
Procedure: Conjugate forms of auxinic compounds when applied through spot infiltration, a needleless method to introduce exogenous agents into plant cells. Initially, various concentrations of analytical grade (98%+pure) IAA, 2,4-D, and dicamba were prepared as solutions that were applied directly to uni-foliate leaves of 9 day old soybean seedlings by spot infiltration in order to determine the range of auxinic response and severity.
Spot infiltration comprises applying a compound to be tested in composition that is applied to the surface of a plant, for example, to a leaf or other plant structure. For example, a method for testing a plant response to one or more compounds using spot infiltration comprises a) providing a composition comprising one or more compounds to be tested in a container having at least an opening for the compound enter and/or exit, and one or more elements for moving the composition into or out of the container; b) contacting at least one opening of the container with the surface of a plant and moving the composition comprising one or more compounds to at least the surface of the plant. A container and elements for moving the composition may comprise a syringe body and plunger. Moving the composition to the plant surface comprises contacting the surface with pressure sufficient for the composition to enter the cells of the plant. In an aspect, spot filtration testing comprises measuring an effect of the composition on the contacted plant and comparing that measure or effect to a plant that is not contacted with the composition.
Plant response phenotypes were documented at one day post-spot infiltration and subsequently every other day, up to nine days post treatment. […] In the studies described herein below, 5 replicate treatments for each conjugate form were conducted, along with appropriate negative controls.
Examples 9 and 10 utilized a spot infiltration method for the delivery of an herbicide directly to leaves of a plant. The method generally allows for the directed delivery of a variety of agents to a localized area of a plant, e.g. localized region of leaves, for screening or assessment purposes, e.g. to quickly assess the response of a plant to the agent. As used in the foregoing examples, the spot infiltration method was used to introduce specific herbicides or specific conjugates of the herbicides to seedling plant leaves. Following introduction of the herbicide or the appropriate conjugate, plants were observed daily for nine days for characteristics of epinasty, trifoliate leaf curly, chlorosis, and new growth recovery.
Briefly, a solution of the desired agent is prepared of the desired agent, e.g. as described above in Example 10, solutions (5% EtOH) of 1, 2.5 and 5 mM IAA. The solution is then drawn into a 1 mL BD™ slip-tip syringe, bulk, non-sterile syringe (e.g. Becton, Dickinson and Company, Product No. 301025) with 100 μL markings. The desired volume is then applied to the leaf, e.g. as described in Examples 9 and 10, with the tip of the syring against the leaf and positive pressure applied to the syringe plunger. Sufficient pressure is applied in order to infuse the area beneath the syringe opening, but not so much pressure as to cause a visible-to-the-eye puncture or hole to form in the leaf. Some run-off of solution around the syringe opening is expected. In the foregoing examples, two spots were applied to each of two leaves per seedling for soybean plants. […] In soybean, both spots per leaf were at the distal portion of the leaf about 1-2 cm apart. When the method was applied to Arabidopsis, two developmentally intermediate aged leaves were chosen per plant, and one spot infiltration was carried out per leaf.

[1] = LC-MS assay of GH3 conjugation of IAA with Asp or Glu; format: biochemical; settings: for Detected auxin conjugates: IAA-Asp / Detected auxin conjugates: IAA-Glu: LC-MS; for Detected auxin conjugates: IAA-Asp: IAA with Asp; for Detected auxin conjugates: IAA-Glu: IAA with Glu
In short: (§1)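 Rxn: 20 mM Tris-HCl pH 8.0, 5 mM MgCl2, 1 mM DTT, 5 mM ATP, 5 mM auxin, 5 mM Asp/Glu, 44–164 μg/mL purified His-GH3; 30° C., 3 h. MeOH quench, supernatant diluted 20×, LC-MS vs conjugate standards.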

[2] = LC-MS assay of GH3 conjugation of dicamba with Asp or Glu; format: biochemical; settings: for Detected auxin conjugates: Dicamba-Asp / Detected auxin conjugates: Dicamba-Glu: LC-MS; for Detected auxin conjugates: Dicamba-Asp: dicamba with Asp; for Detected auxin conjugates: Dicamba-Glu: dicamba with Glu
Procedure: To detect and monitor the formation of acyl conjugates with 2,4-D or dicamba, a sensitive LC-MS method was developed using the respective amino acid conjugate standards. […] […] […] The supernatant was diluted 20× in water and then analyzed by LC-MS (AB Sciex 4000 QTrap coupled with Shimadzu Nexera UHPLC) using a Phenomenex Luna 3 μm Phenyl-Hexyl (00B-4256-Y0) column. The concentration of the conjugates was calculated based on the standards. Kinetic parameters were estimated by fitting initial velocity values to the Michaelis-Menten equation.
The GH3 superfamily conjugase activity analysis of IAA, 2,4-D or dicamba with Asp or Glu was done using LC-MS to analyze the final conjugate products as described in Example 1. Protein sequences of GH3 homologs (Table 3) were obtained from public databases (NCBI, http://www.ncbi.nlm.nih.gov/) by Blast analysis of AtGH3.17 protein sequence (accession # Q9FZ87). Coding sequences were designed for optimal expression in E. coli based on the protein sequences and synthesized. Synthesized coding sequences along with N-term his-tag coding sequences were cloned into a pET24a-based E. coli expression vector. The E. coli expression vectors were transformed into OverExpress C41(DE3) cells (Lucigen) for protein expression. Recombinant E. coli strains were inoculated into 5 ml LB media supplemented with 40 mg/L kanamycin and cultured overnight at 37° C. The overnight culture (0.5 mL) was inoculated into 50 mL LB medium plus 40 mg/L kanamycin and grown at 30° C. until OD600 reached 0.6. The cultures were induced with 0.2 mM IPTG at 16° C., 230 rpm overnight. Cells were harvested by centrifugation at 7,000 rpm for 10 mins. The cell pellet from 50 mL of cell culture was frozen and thawed twice and then lysed in 800 μL lysis buffer A (150 mM NaCl, 50 mM Tris-HCl pH 8.0, 5 mM MgCl2, 10% glycerol) plus 20 mM imidazole, 1 mM DTT, 0.2 mg/ml lysozyme, 1/200 protease inhibitor cocktail (EMD set3, EDTA free) and 1/2000 endonuclease. Lysate was then centrifuged at 13,000 rpm for 30 min at 4° C. Supernatant was loaded onto 200 μL Ni-NTA columns pre-equilibrated with buffer A with 20 mM imidazole at 4° C. Each column was then washed with (1) 2×800 μL of buffer A with 10 mM imidazole, (2) 2×800 μL of buffer A with 20 mM imidazole and (3) 2×200 μL of buffer A with 50 mM imidazole. Protein was eluted with 200 μL of buffer A with 250 mM imidazole. The concentration was measured by Bradford assay. Purified protein was used in conjugation reaction assays as described in example 1.

[3] = LC-MS assay of GH3 conjugation of 2,4-D with Asp or Glu; format: biochemical; settings: for Detected auxin conjugates: 2,4-D-Asp / Detected auxin conjugates: 2,4-D-Glu: LC-MS; for Detected auxin conjugates: 2,4-D-Asp: 2,4-D with Asp; for Detected auxin conjugates: 2,4-D-Glu: 2,4-D with Glu
In short: as §1

## O=C(COc1ccc(Cl)cc1Cl)NC(Cc1ccccc1)C(=O)O [2,4-D-Phe]
Soybean seedlings; 100 μM
  1st trifoliate leaf curl: 0
Soybean seedlings; 250 μM
  1st trifoliate leaf curl: 0
Soybean seedlings; 500 μM
  1st trifoliate leaf curl: 0

## O=C(Cc1c[nH]c2ccccc12)NC(Cc1ccccc1)C(=O)O (centres unmarked) [IAA-Phe]
Soybean seedlings; 1.0 mM
  1st trifoliate leaf curl: 0
  Chlorotic lesion @ app. Pnt: 0
  Epinasty score: 0
Soybean seedlings; 2.5 mM
  1st trifoliate leaf curl: 0
  Chlorotic lesion @ app. Pnt: 0
  Epinasty score: 0
Soybean seedlings; 5.0 mM
  1st trifoliate leaf curl: 0
  Chlorotic lesion @ app. Pnt: 0
  Epinasty score: 0
Soybean seedlings; 1, 2.5 and 5 mM, result in words
  Plant response phenotype, soybean: No discernable phenotype
Soybean seedlings; dissolved in 50% EtOH, consistent with 50% EtOH alone control
  Lesion on leaf surface at point of application, soybean: necrotic lesion on leaf surface at point of application

B1: PtGH3-10: GH3 protein, accession EEE95291 (protein, listed as Populus trichocarpa)
chain: MEPKNTNGSSRSYEHDIISWFEDISKKAGQVQTETLRRILELNWGVEYLNKWLGDINIQDMDASALESLYTSLVPPASHADLEPYISRIADGDTVPLLTKQPITLLSLSSGTTDGRQKFVPFTDHSARTTLQIFSLAAAYRSRVYPTREGGRILEFIYSSKQFKTKGGLTAGTATTHYYASEEFKIKQEKTKCFTCSPQEVICGGDYEQSTYCHLLLGLFFCDQVEFITSTFAYSIVQAFTAFEDVWRDICNDIKHGTLSERINLAKMRKAVLSIISPNPSLASKIEENCKELETQNWLGLITKLWPNSKYVYSIMTGSMQPYFKKLRHYAGGLALVSADYGSTESWIGANVDPYLPPEDVTFAVIPTFSYYEFMPLYRENHYCGSAIDDFIEDEPVPLSKVKVGQEYEIVLTTFTGLYRCRLGDVVEVAGFHKGTPKLNFICRRKLILTINIDKNTEKDLQLVVEKGSQLLMSKARAELVDFTSHAELETQPGHYIIYWEIKGDVEEEVLGECCKKMDASFVDHGYVVSRRTKSIGPLELCIVKTGTFKKILEYFIGNGAALSQFKTPRCTSNHGLLKILNGSTIKRLYSTAYS
[1]
  Detected auxin conjugates: IAA-Asp: Yes
  Detected auxin conjugates: IAA-Glu: Yes
[2]
  Detected auxin conjugates: Dicamba-Asp: No
  Detected auxin conjugates: Dicamba-Glu: No
[3]
  Detected auxin conjugates: 2,4-D-Asp: Yes
  Detected auxin conjugates: 2,4-D-Glu: Yes

B2: PpGH3-2: GH3 protein, accession CAD42871 (protein, listed as Physcomitrella patens)
chain: MALRIENPYYKLLDTDEEIVEDFELMSRNARETQLELLRKILERNANVEYLQRQGLNGRTDEASFKACVPVSTYANIEADVDRIADGDTSPICCVDPPTSFALSSGTTGGKCKLIPRTDALLAQAMKAGQIGSVYRRRAFPRKHEGPPVVMSFQYAGRQFDTKSGLKAGTGTTNFYRSAAFKNAKSAPFSATSPVDIVLGYDVPQQMYCHLLCGLYRCQEVEQMSAIFAYMIVEPFRLLERVWRDICKDIREGTVNERVSDPELRSSVLKVLSPNPELADLIERECAKGWSGIIERLFPNINYIMSIFSGSMLPYVAPMRQYAGSVPLMNADYGASEAWIGINLDPRCPAEDASFTIIPNFAYFEFIPVNRDSAGYDSVEGDEIVGLTDVKVGQEYEIVLTTVGGLYRYRLGDIVKVTGFFNSTPKVAFVCRKGVVLSVNTDKTDEEELRLVVGKASLLLKESNMELADYSSYTDQDSQPGHYVIFWELRSHEHLDMDLLSECCKVLDQSFNNPYMRGRAARTIGPLELAIVKEGAFARLMEQFVRKNGVGASQYKVSRCFKNPATLKHFRDETIATLRSPDFPPELLAAWRPSTKIVG
[1]; conjugation of IAA with Asp by recombinant GH3 protein, IAA-Asp product by LC-MS
  kcat (hrs−1) IAA-Asp: 2.896 h⁻¹
[1]; conjugation of IAA with Glu by recombinant GH3 protein, IAA-Glu product by LC-MS
  kcat (hrs−1) IAA-Glu: 19.308 h⁻¹
[1]; result in words
  IAA conjugation activity with Asp or Glu: can also conjugate IAA to Asp and Glu; also recorded: active GH3 conjugase for both IAA and 2,4-D
[2]; 16 hour reaction, result in words
  Conjugation of dicamba with Glu: could conjugate dicamba with Glu; also recorded: able to conjugate dicamba with glutamate
[2]; FIG. 7, result in words
  Amount of dicamba-Glu conjugates versus amount of protein in the reaction: Increased amount of dicamba-Glu was detected; also recorded: increases with increased amount of PpGH3-2 protein
[2]; conjugation of dicamba with Glu, 16 hour reaction, protein conc. 983 μg/mL
  kcat (16 hrs^−1) dicamba-Glu: 0.024 16 hrs^−1
[3]; conjugation of 2,4-D with Asp by recombinant GH3 protein, 2,4-D-Asp product by LC-MS, 5 mM 2,4-D substrate
  kcat (hrs−1) 2,4-D-Asp: 0.699 h⁻¹
[3]; conjugation of 2,4-D with Glu by recombinant GH3 protein, 2,4-D-Glu product by LC-MS, 5 mM 2,4-D substrate
  kcat (hrs−1) 2,4-D-Glu: 2.820 h⁻¹
[3]; result in words
  2,4-D conjugation activity with Asp or Glu: active GH3 conjugase for both IAA and 2,4-D

B3: RcGH3-5: GH3 protein, accession EEF28472 (protein, listed as Ricinus communis)
chain: MTKNAERVQKETLKKILEENGSAEYLQNLGLDGRTDPESFKICVPICTHGDLEPYIQRIADGDSSPVLTGKPITTISLSSGTTQGKPKYVPFTDQLLDNTLQIFRTSFAYRNREFPLENGKALEFVFSSKQGKTKGGLAAGTATTNLFRNPNYKTALEELQFKSCSPREVIFGSDFHQSLYCHLLCGLIFREDIQFVFSTFAHSIVLAFRTFEQVWEELCDDIRNGELSSRITAPSIRTAMSHLLKPNAELADLIHTKCSGLSNWYGLIPELFPNAKYIYGIMTGSMEPYLKKLRHYAGELPLLSADYGASEGWIAANVNPLLPPELATFAVLPDIGYFEFIPLRRNGDHIYSEPKPIGLSDVKIGEEYEILVTNFAGFYRYRLGDVVKVMGFHNSTPELKFVCRRSLLLSINIDKNTEKDLQLVVEEAAKLLADEKLEVVDFSSLADRSTDPGHYVIFWEISGEPTAEVLQECCNCLDRSFLDAGYVTSRKVKAIGPLELRVVHRGTFQKILDHYLGLGAAVSQFKTPRCVGPANNVVSQILSNNVAKSYVSTAF
[1]
  Detected auxin conjugates: IAA-Asp: Yes
  Detected auxin conjugates: IAA-Glu: No
[2]
  Detected auxin conjugates: Dicamba-Asp: No
  Detected auxin conjugates: Dicamba-Glu: No
[3]
  Detected auxin conjugates: 2,4-D-Asp: No
  Detected auxin conjugates: 2,4-D-Glu: No
